Consider two substances from PMC4247251.

In the test the target is PhTX-II PLA2 (Porthidium hyoprora).

The substance “crotapotin F2 from Crotalus durissus collilineatus (natural protein)” registered an inhibition of the PLA2 enzymatic activity of PhTX-II (substrate 4-nitro-3-(octanoyloxy) benzoic acid) after incubating the two proteins 1:1 w/w for 30 min at 37 °C of 60%. For “crotapotin F3 from Crotalus durissus collilineatus (natural protein)” the value was 60%.
